From US9803013B2, “Biological materials and uses thereof” (BioInvent International AB, priority 2005, dated 2017)

Tests used:
[1] = tested on: HPAC pancreatic carcinoma; assay: IgG binding to tumour cell line, flow cytometry; parameters: species or system human; settings: compared to the prostate cancer cells
Source text: (§1) FIG. 6—Binding of B1, B11, C11 IgG, to tumour cell lines of different origin. The antigen distribution of antigens targeted by the B1, B11, and C11 antibodies on different carcinoma cell lines was investigated by flow-cytometry.
(§2) The antigen distribution of human antibody targeted antigens, mainly for B11, on different carcinoma cell lines was investigated. Cells (MCF-7 and MDA MB 435S breast carcinoma, JAR and JEG-3 chorio-carcinoma, A549 lung carcinoma, TCC-SUP urinary bladder carcinoma, MDA MB 435 melanoma, HPAC, PANC-1 and BxPC-3 pancreatic carcinoma, PC-3 and DU145 prostate carcinoma, LS174 T, CaCo2, and Lovo colorectal carcinoma, and THP-1 monocytic leukaemia cells), were washed in PBS, and resuspended at 4×10^6 cells/ml in Complete Medium (200,000 cells/50 […] sample). […] Cells were incubated with either of the antibodies for 1 hour on ice, washed by resuspension in PBS/BSA 0.5%, centrifuged at 1200 rpm for 5 min, and complete aspiration of the supernatants was undertaken. Cells were incubated with PE-conjugated Goat F(ab′)2 anti-Human IgG (Caltag Laboratories, Cat no: H10104), diluted 1/50 in PBS/BSA 0.5%, for 30 min, on ice. Following resuspension of in 300 μl PBS/BSA 0.5%, cells were analysed for IgG binding using a FACScan instrument.

[2] = tested on: THP-1 monocytic leukaemia cells; assay: IgG binding to tumour cell line, flow cytometry; parameters: species or system human
Source text: as §1, §2

MCF-7 breast carcinoma = assay: IgG binding to tumour cell line, flow cytometry; parameters: species or system human; settings: MCF-7, compared to the prostate cancer cells
Source text: as §1, §2

[3] = tested on: LS174 T colorectal carcinoma; assay: IgG binding to tumour cell line, flow cytometry; parameters: species or system human; settings: compared to the prostate cancer cells
Source text: as §1, §2

ICAM-1 = ICAM-1 (Homo sapiens, UniProt P05362); assay: Radioiodinated IgG B11 binding to Ramos cells, Rosenthal-Scatchard analysis; parameters: endogenous in cells; host or cells: Ramos B lymphoma cells
Description: Iodination of 1 mg/ml of IgG1 B1 or IgG1 B11 proteins with [^125I] NaI was performed in PBS for 10 min using Iodogen pre-coated iodination tubes (Pierce). Free [^125I] NaI was removed by desalting on PD-10 columns (Amersham Biosciences), yielding specific radioactivities in the range of 1000-1600 cpm per ng protein. [^125I] IgG1 B1 and [^125I] IgG1 B11 was used for determination of antibody affinities.
Radioiodinated IgG B1 or IgG B11 was incubated with B lymphoma cells in DPBS-B-hIgG (DPBS-B containing 0.2 mg/ml human IgG) for 2 h on ice with intermittent mixing. Non-specific binding was determined in the presence of 0.2 mg/ml unlabelled IgG B1 or IgG B11 protein, as appropriate. […]
Cells were loaded on top 40% v/v Ficoll/DPBS-B cushions in individual tubes and were centrifuged at 400×g for 6 min at 4° C. […] Cell pellets and cell supernatants were isolated and analysed separately for ^125I-IgG protein content in a gamma counter, following cutting of the tubes in half.
Antibody affinity constants (Kd values) and epitope numbers per cell were determined from Scatchard plot analysis according to Rosenthal et al. (Anal. Biochem. (1967) 20:525-532); Bylund and Yamamura (Methods in Neurotransmitter Analysed, New York: Raven Press Ltd., 1990); and Marquardt (J. Soc. Indust. Appl. Math. (1963) 11:431-441), as previously described (Brix et al., J. Clin. Invest. (1998) 102:283-293). […]

U266 myeloma cells = assay: NK-cell deficient NOD/Shi-scid/IL-2Rγ−/− mouse model; format: in vivo; settings: U266 grafted to NOD/Shi-scid/IL-2Rγ−/− mice
Description: (FIG. 20F) Animal survival following BI-505 or control antibody treatment in a disseminated NK-cell deficient NOD/Shi-scid/IL-2Rγ^−/− mouse model comprising i.v. grafted U266 myeloma cells. ***p<0.001.
Six-eight weeks-old female NOD/Shi-scid IL-2Rγ^−/− mice were obtained from Taconic, Denmark. Five million (5×10^6) RPMI-8226 or U266 tumor cells in 200 μL of RPMI 1640 were intravenously injected into the caudal vein (day 0). The tumor cell injection was performed 2 hr after whole body irradiation of mice (1.5 Gy, Cesium 137, IBL 637). At day 4, mice were randomized into 6 groups and treatment was initiated according to the schedule below.

human FcγRIIIa = biological target: T1, human FcγRIIIa (Homo sapiens, UniProt P08637); assay: BiaCore analysis of BI-505 Fc-variant binding to FcγR
T1 construct: made in house; host or cells: HEK293E cells (transient)
Description: (FIG. 20C) BiaCore analysis of BI-505 Fc-variant antibodies binding to human FcγRIIIa.
His-tagged human FcγRIIIa and mouse FcγRIV were transiently expressed in HEK293E cells, purified using Ni-NTA chromatography, and characterized by SDS-PAGE and/or Biacore. Surface plasmon resonance (SPR) measurements were performed using a Biacore 3000 instrument. Goat F(ab)′2 α-human-F(ab)′2 fragments (Jackson Laboratories) were immobilized with a CM-5 chip using a standard amine coupling protocol. BI-505 (IgG1) and IgG4 or IgG1 297Q variants of BI-505 were diluted to 15 and 60 μg/mL respectively and added to the surface at 10 μL/min for 3 min. His-tagged human FcγRIIIa or mouse FcγRIV was pre-incubated with an α-HIS antibody (R&D Systems) at a 2:1 molar ratio before addition to the chip surface, 30 μL/min, for 1 min. After each cycle the surface was regenerated twice with glycine buffer pH 1.7.

ICAM-1, sequence (P05362 28-532): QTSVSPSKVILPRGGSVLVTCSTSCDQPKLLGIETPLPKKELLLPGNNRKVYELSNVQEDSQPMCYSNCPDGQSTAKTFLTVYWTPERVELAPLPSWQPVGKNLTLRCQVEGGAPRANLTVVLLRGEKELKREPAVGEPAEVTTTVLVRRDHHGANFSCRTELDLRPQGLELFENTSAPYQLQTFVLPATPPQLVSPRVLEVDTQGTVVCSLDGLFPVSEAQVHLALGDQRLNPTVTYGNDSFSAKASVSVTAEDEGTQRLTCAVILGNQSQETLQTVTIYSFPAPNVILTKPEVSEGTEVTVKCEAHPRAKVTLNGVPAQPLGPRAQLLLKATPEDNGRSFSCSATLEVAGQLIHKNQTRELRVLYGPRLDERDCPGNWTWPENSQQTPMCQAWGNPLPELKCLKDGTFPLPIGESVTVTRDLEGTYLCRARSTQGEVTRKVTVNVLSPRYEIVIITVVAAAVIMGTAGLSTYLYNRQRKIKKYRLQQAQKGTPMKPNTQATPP
T1 sequence (P08637 17-254): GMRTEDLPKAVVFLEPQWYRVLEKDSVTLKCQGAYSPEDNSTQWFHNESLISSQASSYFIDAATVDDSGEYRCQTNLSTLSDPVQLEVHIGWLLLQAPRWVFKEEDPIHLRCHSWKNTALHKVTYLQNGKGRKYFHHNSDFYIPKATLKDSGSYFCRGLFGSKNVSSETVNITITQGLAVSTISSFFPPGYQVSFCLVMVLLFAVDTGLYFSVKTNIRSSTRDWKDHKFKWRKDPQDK

B1: B11: fully human IgG1 antibody specific for ICAM-1; VH and VL sequences of FIG. 10 (SEQ ID NOs. 6 and 8) (antibody, listed as Homo sapiens, V domains shown)
VH: EVQLLESGGGLVQPGGSLRLSCAASGFTFSNAWMSWVRQAPGKGLEWVAFIWYDGSNKYYADSVKGRFTISRDNSKNTLYLQMNSLRAEDTAVYYCARYSGWYFDYWGQGTLVTVSS
VL: QSVLTQPPSASGTPGQRVTISCTGSSSNIGAGYDVHWYQQLPGTAPKLLIYDNNNRPSGVPDRFSGSKSGTSASLAISGLRSEDEADYYCQSYDSSLSAWLFGGGTKLTVLG
For B1, which “binding / ICAM-1 expression” value [1] is on record?
The value was “lower intensity”.

What about the “binding / ICAM-1 expression” value [2] of the same molecule?
The value was “did not express ICAM-1”.

And the “binding / ICAM-1 expression” value (MCF-7 breast carcinoma)?
The value was “lower intensity”.

What about the “binding / ICAM-1 expression” value [3] of the same molecule?
The value was “lower intensity”.

And the “functional binding sites (receptors) per cell” value (ICAM-1; Rosenthal-Scatchard plot)?
The value was 47,400.

And the “concentration at which saturable specific binding is reached” value (ICAM-1; radioiodinated IgG)?
The value was about 1 nM.

And the “antitumor activity” value (U266 myeloma cells)?
Its value is “significant antitumor activity”.

And the “binding to human FcγR” value (human FcγRIIIa)?
The value was “bound to human FcγR”.
